According to PMC9006656:
pKd: −log10 of the molar value. Each block holds one substance with its values, some of them ahead of it.

How the values were obtained:
[1] = biological target: wild-type human IgG1 Fc displayed on the CHO cell surface (human); assay: flow cytometry on cells; Fc variants displayed on CHO-T cells as monoclonal populations; stained with monomeric FcγRIIIa V158 on fluorescent streptavidin (50 nM in Fig. 7A) in flow buffer at pH 6.5; percent of cells binding
[2] = biological target: GST-tagged human FcRn-β2m (human) (UniProt P55899)
[3] = biological target: hu4D5 full-length human IgG1 antibody with acid-Fc (human); assay: BLI; same FAB2G experiment at pH 7.4, steady state analysis: equilibrium responses fit to a Langmuir isotherm; apparent
[4] = biological target: hu4D5 full-length human IgG1 antibody with wild-type Fc (human); assay: as above
[5] = biological target: hu4D5 full-length human IgG1 antibody with acid-Fc (human); assay: BLI; same FAB2G experiment at pH 6.5, steady state analysis: equilibrium responses fit to a Langmuir isotherm; apparent
[6] = biological target: hu4D5 full-length human IgG1 antibody with wild-type Fc (human); assay: as above
[7] = biological target: hu4D5 full-length human IgG1 antibody with acid-Fc (human); assay: BLI; antibody captured on anti-CH1 FAB2G tips; FcγRIIIa V158 (62.5-2000 nM) or F158 (156-5000 nM) in solution, pH 7.4; 1:1 model, full association and initial 5 s of dissociation; Kd = koff/kon; observed values
[8] = biological target: hu4D5 full-length human IgG1 antibody with wild-type Fc (human); assay: as above
[9] = biological target: hu4D5 full-length human IgG1 antibody with acid-Fc (human); assay: BLI; antibody captured on anti-CH1 FAB2G tips; FcγRIIIa V158 (62.5-2000 nM) or F158 (156-5000 nM) in solution, pH 6.5; 1:1 model, full association and initial 5 s of dissociation; Kd = koff/kon; observed values
[10] = biological target: hu4D5 full-length human IgG1 antibody with wild-type Fc (human); assay: as above

Chain of wild-type human IgG1 Fc displayed on the CHO cell surface (human) (P01857 1-350): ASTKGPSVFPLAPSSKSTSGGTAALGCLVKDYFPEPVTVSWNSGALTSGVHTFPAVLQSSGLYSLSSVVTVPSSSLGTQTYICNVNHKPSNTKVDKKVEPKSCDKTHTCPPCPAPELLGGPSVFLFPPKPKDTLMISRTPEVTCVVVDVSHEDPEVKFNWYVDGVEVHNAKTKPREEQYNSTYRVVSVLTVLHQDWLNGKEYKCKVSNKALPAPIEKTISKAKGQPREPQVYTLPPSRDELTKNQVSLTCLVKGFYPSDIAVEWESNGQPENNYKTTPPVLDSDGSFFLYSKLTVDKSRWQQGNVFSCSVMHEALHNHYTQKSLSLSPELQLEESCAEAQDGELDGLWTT

ratio of the percent of cells binding at pH 6.5 versus the percent binding at pH 7.4 [1]: 1
Substance: biotinylated FcγRIIIa (allele V158) monomerically bound to fluorescent streptavidin (receptor)

serum beta elimination half-life (t1/2) in homozygous Tg32 mice expressing human FcRn, 2 mg/kg intraperitoneally [2]: 209 h
Substance: hu4D5 full-length human IgG1 antibody with wild-type Fc

serum beta elimination half-life (t1/2) in homozygous Tg32 mice expressing human FcRn, increase as compared to wild-type [2]: 1.4 fold
Substance: hu4D5 human IgG1 antibody with the M252Y/S254T/T256E (YTE) substitutions

pKd [3]: 5.96
pKd [4]: 6.29
pKd [5]: 6.22
pKd [6]: 6.38
pKd [7]: 6.04
koff [7]: 0.226 s⁻¹
kon [7]: 250000 M⁻¹ s⁻¹
pKd [8]: 6.32
koff [8]: 0.134 s⁻¹
kon [8]: 280000 M⁻¹ s⁻¹
pKd [9]: 6.27
koff [9]: 0.177 s⁻¹
kon [9]: 340000 M⁻¹ s⁻¹
pKd [10]: 6.40
koff [10]: 0.119 s⁻¹
kon [10]: 300000 M⁻¹ s⁻¹
Substance: human FcγRIIIa F158, AVI and His tagged, biotinylated (from UniProt P08637 17-254) (receptor)
